Measurements published in article PMC4739419, “Mutations in the nucleotide binding and hydrolysis domains of Helicobacter pylori MutS2 lead to altered biochemical activities and inactivation of its in vivo function” (BMC Microbiology, 2016).

B1: HpMutS2-E413A (enzyme)
chain: MSDAPKRSLNPTLMMNNNNTPPKPLEESLDLKEFIALFKTFFAKERDTIALENDLKQTFTYLNEVDAIGLPTPKSVKESDLIIIKLTKLGTLHLDEIFEIVKRLHYIVVLQNAFKTFTHLKFHERLNAIVLPPFFNDLIALFDDEGKIKQGANATLDALNESLNRLKKESVKIIHHYARSKELAPYLVDTQSHLKHGYECLLLKSGFSGAIKGVVLERSANGYFYLLPESAQKIAQKIAQIGNEIDCCIVEMCQTLSHSLQKHLLFLKFLFKEFDFLDSLQARLNFAKAYNLEFVMPSFTQKKMILENFSHPILKEPKPLNLKFEKSMLAVTGVNAGGKTMLLKSLLSAAFLSKHLIPMKINAHHSIIPYFKEIHAIINDPQNSANNISTFAGRMKQFSALLSKENMLLGVDAIELGTDADEASSLYKTLLEKLLKQNNQIIITTHHKRLSVLMAENKEVELLAALYDEEKERPTYTFLKGVIGKSYAFETALRYGVPHFLIEKAKTFYGEDKEKLNVLIENSSALERELKQKNEHLENALKEQEYLKNAWLLEMEKQKEIFHNKKLELEKSYQQALNILKSEVASKDTSSMHKEIHKASEILSKHKTNQEIPQIITNFQANEKARYKNESVLIVQILDKGYYWIETELGMRLKAHGSLLKKIQKPPKNKFKPPKTTIPKPKEASLRLDLRGQRSEEALDLLDAFLNDALLGGFEEVLICHGKGSGILEKFVKEFLKNHPKVVSFSDAPINLGGSGVKIVKL
notes: also called Walker-B mutant
B2: HpMutS2: Helicobacter pylori MutS2 (1-762), C-terminally His6-tagged wild-type protein, nuclease and ABC ATPase (protein)
chain: MSDAPKRSLNPTLMMNNNNTPPKPLEESLDLKEFIALFKTFFAKERDTIALENDLKQTFTYLNEVDAIGLPTPKSVKESDLIIIKLTKLGTLHLDEIFEIVKRLHYIVVLQNAFKTFTHLKFHERLNAIVLPPFFNDLIALFDDEGKIKQGANATLDALNESLNRLKKESVKIIHHYARSKELAPYLVDTQSHLKHGYECLLLKSGFSGAIKGVVLERSANGYFYLLPESAQKIAQKIAQIGNEIDCCIVEMCQTLSHSLQKHLLFLKFLFKEFDFLDSLQARLNFAKAYNLEFVMPSFTQKKMILENFSHPILKEPKPLNLKFEKSMLAVTGVNAGGKTMLLKSLLSAAFLSKHLIPMKINAHHSIIPYFKEIHAIINDPQNSANNISTFAGRMKQFSALLSKENMLLGVDEIELGTDADEASSLYKTLLEKLLKQNNQIIITTHHKRLSVLMAENKEVELLAALYDEEKERPTYTFLKGVIGKSYAFETALRYGVPHFLIEKAKTFYGEDKEKLNVLIENSSALERELKQKNEHLENALKEQEYLKNAWLLEMEKQKEIFHNKKLELEKSYQQALNILKSEVASKDTSSMHKEIHKASEILSKHKTNQEIPQIITNFQANEKARYKNESVLIVQILDKGYYWIETELGMRLKAHGSLLKKIQKPPKNKFKPPKTTIPKPKEASLRLDLRGQRSEEALDLLDAFLNDALLGGFEEVLICHGKGSGILEKFVKEFLKNHPKVVSFSDAPINLGGSGVKIVKL
modifications: left off: His6, C-terminal, state not stated
notes: Helicobacter pylori MutS2 (1-762), C-terminally His6-tagged wild-type protein, nuclease and ABC ATPase
B3: HpMutS2-G338R (protein)
chain: MSDAPKRSLNPTLMMNNNNTPPKPLEESLDLKEFIALFKTFFAKERDTIALENDLKQTFTYLNEVDAIGLPTPKSVKESDLIIIKLTKLGTLHLDEIFEIVKRLHYIVVLQNAFKTFTHLKFHERLNAIVLPPFFNDLIALFDDEGKIKQGANATLDALNESLNRLKKESVKIIHHYARSKELAPYLVDTQSHLKHGYECLLLKSGFSGAIKGVVLERSANGYFYLLPESAQKIAQKIAQIGNEIDCCIVEMCQTLSHSLQKHLLFLKFLFKEFDFLDSLQARLNFAKAYNLEFVMPSFTQKKMILENFSHPILKEPKPLNLKFEKSMLAVTGVNAGRKTMLLKSLLSAAFLSKHLIPMKINAHHSIIPYFKEIHAIINDPQNSANNISTFAGRMKQFSALLSKENMLLGVDEIELGTDADEASSLYKTLLEKLLKQNNQIIITTHHKRLSVLMAENKEVELLAALYDEEKERPTYTFLKGVIGKSYAFETALRYGVPHFLIEKAKTFYGEDKEKLNVLIENSSALERELKQKNEHLENALKEQEYLKNAWLLEMEKQKEIFHNKKLELEKSYQQALNILKSEVASKDTSSMHKEIHKASEILSKHKTNQEIPQIITNFQANEKARYKNESVLIVQILDKGYYWIETELGMRLKAHGSLLKKIQKPPKNKFKPPKTTIPKPKEASLRLDLRGQRSEEALDLLDAFLNDALLGGFEEVLICHGKGSGILEKFVKEFLKNHPKVVSFSDAPINLGGSGVKIVKL

How the values were obtained:
H. pylori strain 26695 = assay: Recombination assay (incorporation of streptomycin resistant chromosomal DNA); type: cell-based, Helicobacter pylori; conditions: for fold higher recombination / transformation frequency than the wild-type strain: HpMutS2-E413A over-expressed in the wild-type strain
Procedure: The construction of hpmutS2-disrupted strain, complements, and calculations of recombination frequencies were performed as described in [7]. Briefly, H. pylori strain 26695 was used to disrupt hpmutS2 gene by allelic replacement using a chloramphenicol resistance cassette and to generate integrations. The wild-type and mutants of HpMutS2 preceded by ureA promoter and containing an apramycin resistance cassette were integrated into a non-essential ureA locus. The correct constructions were verified by PCR and the expression of proteins was monitored by Western blots. Recombination frequencies were determined by rate of incorporation of streptomycin resistant isogenic total chromosomal DNA (200 ng) per cfu. P values were calculated using the Mann–Whitney U test. At least two independent clones of each construction were used to determine the recombination frequencies. All DNA constructs were introduced using natural transformation. H. pylori was grown on BAB plates at 37 °C under microaerophillic conditions.

[1] = target: the molecule itself; assay: SEC; Superose-6 HR 10/30, buffer B (50 mM Tris pH 8.0, 100 mM NaCl), 0.3 ml/min, approximately 150 ug protein injected; mass from a plot of Ve/Vo versus log of molecular mass of standards
chymotrypsin = assay: Limited proteolysis with chymotrypsin; conditions: 37 °C; for effect of nucleotide pre-incubation on proteolysis: pre-incubation with ADP, ATP or ATPγS 1 mM, 15 min; for susceptibility to proteolysis compared to the wild-type protein: protein 4 μM, chymotrypsin 1.25 ng, 30 min, no nucleotide
Procedure: Fig. 4 Nucleotide and mutation induced conformational changes in HpMutS2. a Limited proteolysis. Proteins (4 μM) either free or pre-incubated with nucleotides (1 mM) were incubated with chymotrypsin (1.25 ng) for 30 min at 37 °C. All proteolysis reactions were performed in 1X buffer A lacking magnesium. Reactions were stopped by adding a protease inhibitor cocktail and the products were separated on SDS-PAGE (10 %). Lane M: Molecular weight marker. b Thermal stability profiles of wild-type HpMutS2, HpMutS2-G338R, and HpMutS2-E413A. Proteins (1 μM) dialyzed in 50 mM Tris-Cl and 100 mM NaCl were subjected to thermal denaturation and spectra were recorded at 222 nm using Jasco-815 spectropolarimeter
HpMutS2 (4 μM) was incubated with chymotrypsin (1.25 ng) or in buffer A lacking magnesium at 37 °C for 30 min. The reactions were stopped by addition of protease inhibitor cocktail (Sigma) and the proteolyzed products were separated on SDS-PAGE (10 %). Nucleotide cofactors (1 mM) were pre-incubated with the proteins for 15 min at 37 °C before addition of chymotrypsin. The heat denaturation of proteins was performed by heating them at 95 °C for 10 min. All the reactions were performed in 1X buffer A. Protein bands were detected by staining with Coomassie Brilliant Blue.

[2] = Far-UV circular dichroism spectroscopy; type: physicochemical; conditions: protein 1 μM, far-UV CD 200–300 nm
Procedure: Fig. 3 Mutation induced conformational changes in HpMutS2. a CD-spectroscopy of HpMutS2, HpMutS2-G338R, and HpMutS2-E413A. Far-UV CD spectra of proteins (1 μM) dialyzed in 50 mM Tris-Cl and 100 mM NaCl were recorded between 200–300 nm with 20 mdeg sensitivity at a scan speed of 50 nm using 2 mm path length cuvette with a bandwidth of 2 nm. The spectra were recorded using Jasco-815 spectropolarimeter. Size exclusion chromatographic analysis of b HpMutS2, c HpMutS2-G338R, and d HpMutS2-E413A was performed using Superose-6 gel filtration column at a constant flow rate of 0.3 ml/min. Approximately 150 μg of all the proteins were spun at 10,000 rpm for 10 min at 4 °C before injection. The absorbance was recorded at 280 nm
Freshly prepared proteins were dialyzed twice in buffer B for 4–6 h with at least two changes of the buffer. Far-UV CD spectra of proteins (1 μM) were obtained using a Jasco-815 spectropolarimeter equipped with a Peltier stage (Japan Spectroscopic Co., Japan) at 25 °C. The spectra were recorded between 200–300 nm with 20 mdeg sensitivity at a scan speed of 50 nm using 2 mm path length cuvette with a bandwidth of 2 nm. […] Thermal denaturation of the proteins was monitored at single wavelength (222 nm) by increasing temperature from 25 °C-80 °C. The percentage of unfolded protein was calculated by considering the protein at 25 °C as 100 % folded.

| Molecule | fold higher recombination / transformation frequency than the wild-type strain (H. pylori strain 26695) | binding result [1] | effect of nucleotide pre-incubation on proteolysis (chymotrypsin) | susceptibility to proteolysis compared to the wild-type protein (chymotrypsin) | reduced negative ellipticity compared to the wild-type protein [2] | Relative value (recombinant frequency relative to Wt) (H. pylori strain 26695; Wt = 1) | Recombinant frequency (H. pylori strain 26695; streptomycin resistance colonies per recipient cfu, average (±standard deviation)) |
| --- | --- | --- | --- | --- | --- | --- | --- |
| B1 | ~ 5 fold | binds | only a slight effect | much more resistant | 30–34% | – | – |
| B2 | ~ 8 fold | – | proteolysis was significantly reduced | – | – | 7.9 | 39.2 (±29.2) x10^−4 |
| B3 | – | – | only a slight effect | slightly more susceptible to proteolysis | no significant changes | – | – |
